Key:
[1] = biological target: Siglec-10_(d1-d2) WT fused to human IgG1 Fc (Siglec-10Fc WT) (human, UniProt Q96LC7); experiment: BLI
[2] = biological target: the molecule itself; experiment: DNA-PAINT super-resolution microscopy with nearest-neighbour distance analysis

| Kd [1] [nM] | Binder | mean percent dimers after tunicamycin [2] [%] | mean percent dimers before tunicamycin [2] [%] | percent dimers [2] [%] |
| --- | --- | --- | --- | --- |
| 1.1 | Fab portion of the anti-Siglec-10 mAb S10A (S10A Fab) (Fab, V domains shown) VH: QIQLQQSGAELEKPGASVKMSCKASGYTFTSYWMHWVKQRPGQGLEWIGYINPDTDSTEYNQKFRDKATLTADKSSSTAYMQLSSLTSEDSAVYYCARPYYRYAGYAMDYWGQGTSVTVSS VL: DIKMTQSPSSMYASLGERVTITCKASQDINSYLSWFQQKPGKSPKTLIYRANRLVDGVPSRFSGSGSGQVYSLTISSLEYEDLGIYYCLQYDEFPWTFGGGTKLEIK |  |  |  |
|  | intracellularly GFP-tagged Siglec-10 R127A in THP-1 cells (receptor, human, UniProt Q96LC7 17-697, looked up) MDGRFWIRVQESVMVPEGLCISVPCSFSYPRQDWTGSTPAYGYWFKAVTETTKGAPVATNHQSREVEMSTRGRFQLTGDPAKGNCSLVIRDAQMQDESQYFFRVERGSYVAYNFMNDGFFLKVTALTQKPDVYIPETLEPGQPVTVICVFNWAFEECPPPSFSWTGAALSSQGTKPTTSHFSVLSFTPRPQDHNTDLTCHVDFSRKGVSAQRTVRLRVAYAPRDLVISISRDNTPALEPQPQGNVPYLEAQKGQFLRLLCAADSQPPATLSWVLQNRVLSSSHPWGPRPLGLELPGVKAGDSGRYTCRAENRLGSQQRALDLSVQYPPENLRVMVSQANRTVLENLGNGTSLPVLEGQSLCLVCVTHSSPPARLSWTQRGQVLSPSQPSDPGVLELPRVQVEHEGEFTCHARHPLGSQHVSLSLSVHYSPKLLGPSCSWEAEGLHCSCSSQASPAPSLRWWLGEELLEGNSSQDSFEVTPSSAGPWANSSLSLHGGLSSGLRLRCEAWNVHGAQSGSILQLPDKKGLISTAFSNGAFLGIGITALLFLCLALIIMKILPKRRTQTETPRPRFSRHSTILDYINVVPTAGPLAQKRNQKATPNSPRTPLPPGAPSPESKKNQKKQYQLPSFPEPKSSTQAPESQESQEELHYATLNFPGVRPRPEARMPKGTQADYAEVKFQ | 69 | 59 | 47 |
|  | intracellularly GFP-tagged Siglec-10 R119A in THP-1 cells (receptor, human, UniProt Q96LC7 17-697, looked up) MDGRFWIRVQESVMVPEGLCISVPCSFSYPRQDWTGSTPAYGYWFKAVTETTKGAPVATNHQSREVEMSTRGRFQLTGDPAKGNCSLVIRDAQMQDESQYFFAVERGSYVRYNFMNDGFFLKVTALTQKPDVYIPETLEPGQPVTVICVFNWAFEECPPPSFSWTGAALSSQGTKPTTSHFSVLSFTPRPQDHNTDLTCHVDFSRKGVSAQRTVRLRVAYAPRDLVISISRDNTPALEPQPQGNVPYLEAQKGQFLRLLCAADSQPPATLSWVLQNRVLSSSHPWGPRPLGLELPGVKAGDSGRYTCRAENRLGSQQRALDLSVQYPPENLRVMVSQANRTVLENLGNGTSLPVLEGQSLCLVCVTHSSPPARLSWTQRGQVLSPSQPSDPGVLELPRVQVEHEGEFTCHARHPLGSQHVSLSLSVHYSPKLLGPSCSWEAEGLHCSCSSQASPAPSLRWWLGEELLEGNSSQDSFEVTPSSAGPWANSSLSLHGGLSSGLRLRCEAWNVHGAQSGSILQLPDKKGLISTAFSNGAFLGIGITALLFLCLALIIMKILPKRRTQTETPRPRFSRHSTILDYINVVPTAGPLAQKRNQKATPNSPRTPLPPGAPSPESKKNQKKQYQLPSFPEPKSSTQAPESQESQEELHYATLNFPGVRPRPEARMPKGTQADYAEVKFQ | 69 | 72 | 69 |
|  | intracellularly GFP-tagged Siglec-10 WT in THP-1 cells (receptor, human, UniProt Q96LC7 17-697, looked up) MDGRFWIRVQESVMVPEGLCISVPCSFSYPRQDWTGSTPAYGYWFKAVTETTKGAPVATNHQSREVEMSTRGRFQLTGDPAKGNCSLVIRDAQMQDESQYFFRVERGSYVRYNFMNDGFFLKVTALTQKPDVYIPETLEPGQPVTVICVFNWAFEECPPPSFSWTGAALSSQGTKPTTSHFSVLSFTPRPQDHNTDLTCHVDFSRKGVSAQRTVRLRVAYAPRDLVISISRDNTPALEPQPQGNVPYLEAQKGQFLRLLCAADSQPPATLSWVLQNRVLSSSHPWGPRPLGLELPGVKAGDSGRYTCRAENRLGSQQRALDLSVQYPPENLRVMVSQANRTVLENLGNGTSLPVLEGQSLCLVCVTHSSPPARLSWTQRGQVLSPSQPSDPGVLELPRVQVEHEGEFTCHARHPLGSQHVSLSLSVHYSPKLLGPSCSWEAEGLHCSCSSQASPAPSLRWWLGEELLEGNSSQDSFEVTPSSAGPWANSSLSLHGGLSSGLRLRCEAWNVHGAQSGSILQLPDKKGLISTAFSNGAFLGIGITALLFLCLALIIMKILPKRRTQTETPRPRFSRHSTILDYINVVPTAGPLAQKRNQKATPNSPRTPLPPGAPSPESKKNQKKQYQLPSFPEPKSSTQAPESQESQEELHYATLNFPGVRPRPEARMPKGTQADYAEVKFQ | 50 | 61 | 67 |

— article doi:10.1101/2025.06.10.658867 (bioRxiv, 2025)
